For assay [1], the target named is T1, HA-tagged ASK1-WT (UniProt Q99683 1-1374).
T1 sequence (looked up): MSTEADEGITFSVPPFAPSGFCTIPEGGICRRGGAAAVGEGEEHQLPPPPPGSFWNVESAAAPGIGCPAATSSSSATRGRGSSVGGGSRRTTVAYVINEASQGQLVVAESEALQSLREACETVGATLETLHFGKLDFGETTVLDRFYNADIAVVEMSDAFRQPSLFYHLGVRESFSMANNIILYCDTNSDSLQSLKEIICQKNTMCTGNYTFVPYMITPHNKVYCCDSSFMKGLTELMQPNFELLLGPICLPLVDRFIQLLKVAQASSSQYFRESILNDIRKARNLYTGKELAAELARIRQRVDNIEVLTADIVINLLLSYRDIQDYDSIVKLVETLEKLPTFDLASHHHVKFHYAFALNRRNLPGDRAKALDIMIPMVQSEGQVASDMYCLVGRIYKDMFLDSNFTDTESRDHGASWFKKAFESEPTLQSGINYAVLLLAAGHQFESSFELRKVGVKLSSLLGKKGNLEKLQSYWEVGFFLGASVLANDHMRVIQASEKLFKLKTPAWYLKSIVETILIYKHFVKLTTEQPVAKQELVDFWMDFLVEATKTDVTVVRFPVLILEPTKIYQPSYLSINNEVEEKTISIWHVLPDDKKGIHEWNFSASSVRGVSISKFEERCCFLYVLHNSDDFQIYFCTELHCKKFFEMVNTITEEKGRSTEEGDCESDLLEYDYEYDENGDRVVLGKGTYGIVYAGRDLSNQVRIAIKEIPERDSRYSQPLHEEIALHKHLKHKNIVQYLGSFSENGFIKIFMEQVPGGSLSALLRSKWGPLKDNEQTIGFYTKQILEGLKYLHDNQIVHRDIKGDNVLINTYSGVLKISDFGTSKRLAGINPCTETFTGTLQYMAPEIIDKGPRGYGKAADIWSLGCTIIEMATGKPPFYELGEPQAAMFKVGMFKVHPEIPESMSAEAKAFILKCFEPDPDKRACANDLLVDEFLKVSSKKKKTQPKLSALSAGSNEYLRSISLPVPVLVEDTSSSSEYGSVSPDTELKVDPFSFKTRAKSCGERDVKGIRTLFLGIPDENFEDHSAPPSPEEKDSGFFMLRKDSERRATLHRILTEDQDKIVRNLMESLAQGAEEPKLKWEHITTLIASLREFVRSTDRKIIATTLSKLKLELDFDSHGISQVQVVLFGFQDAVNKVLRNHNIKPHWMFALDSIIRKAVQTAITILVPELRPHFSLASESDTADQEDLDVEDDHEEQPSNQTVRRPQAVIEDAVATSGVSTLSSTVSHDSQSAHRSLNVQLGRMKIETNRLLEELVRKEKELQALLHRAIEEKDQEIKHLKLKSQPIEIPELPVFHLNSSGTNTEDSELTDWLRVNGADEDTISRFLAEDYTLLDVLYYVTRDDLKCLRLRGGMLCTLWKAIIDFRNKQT
Description: cell-based or functional assay.

The target in assay [2] is T1, HA-tagged ASK1-WT. Description: GST pull-down from BAEC lysate, anti-HA Western blot.
Assay [3] concerns the target T1, HA-tagged ASK1-WT. In words: co-immunoprecipitation from BAEC (anti-Flag IP, anti-HA blot).

B1: Flag-tagged Trx-WT (enzyme, not shown: small tags and cut ends)
chain: MVKQIESKTAFQEALDAAGDKLVVVDFSATWCGPCKMIKPFFHSLSEKYSNVIFLEVDVDDCQDVASECEVKCMPTFQFFKKGQKVGEFSGANKEKLEATINELV
As for B1, in the assay with HA-tagged ASK1-WT [1], the “cell survival in ASK1-induced EC death (GFP co-transfection killing assay)” value (“cell survival in ASK1-induced EC death” below) amounted to 92% and the “inhibition of ASK1-induced caspase 3 activity” value (from here on “inhibition”) turned out to be 50%.

B2: GST-Trx-CS (enzyme, not shown: a dimerising Fc or GST; large carriers; small tags and cut ends)
chain: MVKQIESKTAFQEALDAAGDKLVVVDFSATWSGPSKMIKPFFHSLSEKYSNVIFLEVDVDDCQDVASECEVKCMPTFQFFKKGQKVGEFSGANKEKLEATINELV
notes: also called double-mutant of C32S and C35S
As for B2, the binding result in the assay with HA-tagged ASK1-WT [2] is “no binding”.

B3: Flag-tagged Trx-C32S (enzyme, not shown: small tags and cut ends)
chain: MVKQIESKTAFQEALDAAGDKLVVVDFSATWSGPCKMIKPFFHSLSEKYSNVIFLEVDVDDCQDVASECEVKCMPTFQFFKKGQKVGEFSGANKEKLEATINELV
With B3, in the assay with HA-tagged ASK1-WT [1], the “cell survival in ASK1-induced EC death” value turned out to be 80% and the “inhibition” value stood at 48%.

B4: Flag-tagged Trx-C35S (enzyme, not shown: small tags and cut ends)
chain: MVKQIESKTAFQEALDAAGDKLVVVDFSATWCGPSKMIKPFFHSLSEKYSNVIFLEVDVDDCQDVASECEVKCMPTFQFFKKGQKVGEFSGANKEKLEATINELV
With B4, in the assay with HA-tagged ASK1-WT [1], the “cell survival in ASK1-induced EC death” value came to 105% and the “inhibition” value came to 52%.

B5: Flag-tagged Trx-CS (enzyme)
chain: MVKQIESKTAFQEALDAAGDKLVVVDFSATWSGPSKMIKPFFHSLSEKYSNVIFLEVDVDDCQDVASECEVKCMPTFQFFKKGQKVGEFSGANKEKLEATINELV
notes: Expressed by transfection in BAEC; not shown: Flag tag of the Flag-vector
In the case of B5, the binding result with HA-tagged ASK1-WT [3] is on record as “no binding”.
